This test addresses recombinant human PD-1 dimer expressed with a C-terminal mouse IgG2a Fc tag (hPD-1-mFc) (human). In words: competition ELISA, 1.5 nM hPD-1-mFc, coated hPD-L1-hFc; NBI. (An ELISA detects its analyte on a solid surface through an enzyme-linked reagent.)

Sequence of recombinant human PD-1 dimer expressed with a C-terminal mouse IgG2a Fc tag (hPD-1-mFc) (human) (chain, as listed by the source limits assumed): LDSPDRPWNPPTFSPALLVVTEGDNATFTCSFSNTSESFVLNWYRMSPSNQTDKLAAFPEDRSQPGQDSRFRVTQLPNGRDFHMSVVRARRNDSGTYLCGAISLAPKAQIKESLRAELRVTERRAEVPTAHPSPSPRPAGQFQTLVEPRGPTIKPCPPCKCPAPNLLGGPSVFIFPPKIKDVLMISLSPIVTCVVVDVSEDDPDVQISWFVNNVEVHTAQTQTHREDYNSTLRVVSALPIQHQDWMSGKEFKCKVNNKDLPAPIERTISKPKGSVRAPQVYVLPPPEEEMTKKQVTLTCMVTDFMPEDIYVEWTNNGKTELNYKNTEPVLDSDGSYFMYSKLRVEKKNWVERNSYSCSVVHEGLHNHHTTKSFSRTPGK

With Isotype control 2 (antibody), the % blocking at 200 nM antibody was -18%.

The record behind these values is US20240382677A1.
